From the supplement of paper PMC12042874
± gives the uncertainty stated by the source.

Experiment: amyloid nucleation score (Sup35N fusion, yeast selection) (log enrichment); library NNK2; higher = more nucleation; inactive = no reads after selection
Summary of the method: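 Plasmid inserts were Illumina-sequenced at input and output from psi-negative yeast expressing Sup35N fused to peptides of 20 random codons. The yeast were induced with 100 μM copper sulfate for 24 hours and grown 7 days at 30°C on medium lacking adenine and uracil, and sequences with under 100 input reads were excluded. Nucleation score is the DiMSum log enrichment of output over input reads, centred on the mode score of non-aggregating sequences.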

Substance | amyloid nucleation score
RYLETYHSHACVSFTERN | 0.606 ± 0.45
VNMYSWVKVCWEILYTDRAG | -0.906 ± 0.41
TYVDTVFSGSGCYLLYKGWI | 0.851 ± 0.57
TMRVHRYRTN | -0.493 ± 0.63
AIWVYRPLVIQGTFGIRPA | 6.15 ± 0.08
NEVRYLGTVLACQQRLHTWM | 1.06 ± 0.29
LTYNISQCYILFFVYITGHD | inactive
EDGGLCSASVRLYG | 0.379 ± 0.33
LHCRSCGF | -0.193 ± 0.43
QKYWCDFSNK | inactive
AFYMIRH | 3.66 ± 0.076
MLVCRWNACSVVLSVSGLAR | 0.718 ± 0.21
RILFNRS | 0.107 ± 0.4
ILGSARYIVCGQVSEMRSAG | 0.367 ± 0.49
CGARRGCDSWTSSTAGKSVG | 1.16 ± 0.61
GLMTYFSSVESGEHTDRNLS | -0.732 ± 0.33
IYMGISVCSICYV | 6.34 ± 0.071
YLLIPWKSKDPLHIGLLF | -0.381 ± 1.1
SGYVIHLVDDKALHTCDRNQ | 0.294 ± 0.18
SCCNL | -0.11 ± 0.19
KGNTIKSCSRMMLHRQHVW | -0.485 ± 0.45
ACDVDAMFTKMYSIFFR | 0.479 ± 0.62
CNVSCFVRVVFKWIIS | 2.33 ± 0.24
FWRTP | -0.539 ± 0.5
GVSVMKVLYLCTIDKALCFG | 6.06 ± 0.068

Substance | amyloid nucleation score
GPCGVVVNFHRSCFCRFEFL | 7.61 ± 0.082
ENYFCSYWFCFSWALG | 6.362 ± 0.062
FWGIVKYMWIFSTTYLNVFL | 3.22 ± 0.11
AGVSLFVHGNL | 4.45 ± 0.095
TGFSLVFSWFFLNG | 3.68 ± 0.099
PFLSLAVFVTQAVVEHCCRC | 7.48 ± 0.085
MTRNGDLFS | 0.657 ± 0.4
SMGMLP | -0.641 ± 1.1
LSGVFNSFCLRGNGREWVAL | -0.034 ± 0.32
RKDSCCSVNRCDAMSFVRGI | 0.073 ± 1.1
DNSYVMDLECLICCNFSNTK | 8.201 ± 0.025
QVVEYN | -0.047 ± 0.33
YYEVCPI | -0.076 ± 0.44
LGLCLHLISSFRHRYAVLSR | -0.19 ± 0.3
MDKCETEMYIMSAHVFRRLW | 6.229 ± 0.048
SGYMMNFAA | 1.24 ± 0.32
DMSIRRRI | -0.419 ± 0.32
RTDFMHTIFLPCRGHGMSWF | 0.91 ± 0.35
IYRCIYRTPMLLGLYFNGPV | -0.791 ± 0.55
GIRLGSNDQSVYSRPNV | 1.46 ± 0.35
VSLRSDSGLGITVLMPPSRS | 1.6 ± 0.44
FLCYKISSFVSICKQQEAHA | -0.064 ± 1.1
EYSMHTWCRYKEDFSRGASG | 2.98 ± 0.096
FVGDTIQVVIWLMIIYFWFF | 0.959 ± 0.74
CTCFGRVRLQKSIWGKRLIH | -0.383 ± 0.56

Substance | amyloid nucleation score
SYDLPPFI | 2.57 ± 0.11
ANSMLVF | -0.573 ± 0.4
VISGGFMF | 4.63 ± 0.069
PSDSLVYVYDL | -0.41 ± 0.38
HFSYKPVEYPLFSRFKPVFN | -0.025 ± 0.79
MYKVPTCPMFMVDNYYKLLN | inactive
MFHLRSNVMPTGLVRTPMLL | 1.54 ± 0.44
YFLSGRVSEGSAITIRELSP | 2.34 ± 0.091
WHSTVSLWSHPFPHKATKEP | 0.256 ± 0.42
YFTSGNDDSVFDVYRSIWMV | 2.91 ± 0.13
VHFASPRRACRFIRRRYTTH | 3.77 ± 0.11
VTTKKHPIYTVTRRDRKPGD | 0.524 ± 0.32
GSYMS | 3.54 ± 0.065
HNVVRGFCLVFTIYHSGRTR | 5.1 ± 0.082
FSLCDILVLVNTNAGWAAFD | -0.352 ± 1
CQSCYYHNR | -0.77 ± 0.21
SMGSPETC | -0.47 ± 1.1
KERLAFCMYGLGVDYVTFGN | 0.497 ± 0.57
SRFLFCVPHVDCWLLTWNLS | 6.68 ± 0.073
FWHIEMCENSTYHVSLSTGC | 4.394 ± 0.04
SRHRLAMRTAGTRVVSCWG | 0.285 ± 0.3
KRINCPKFSNGQYGLS | inactive
CPWSQSRLAYYTCGYYTASS | 0.193 ± 0.5
FSLEMTLFWPVFRLCPISSL | 0.606 ± 0.66
SMYLCDK | -0.621 ± 0.48

Substance | amyloid nucleation score
NFVSISMGNIYMSQLGRWTA | 8.33 ± 0.051
YYSVMWYLMERAIN | -0.975 ± 0.35
EVIANWLENGYYVSKTVFVD | -0.026 ± 0.29
FSMLF | -0.462 ± 0.56
ECLTLFRTGRM | 5.306 ± 0.037
YEYVCVLAVACITGRFTLHW | -0.757 ± 0.36
HSLLGPGPVPSYPQFSSPGR | inactive
TDLWSNYLSGNLVENFITCL | -1.96 ± 1.1
VVLRVLISFSHSTIRLEGLV | 2.84 ± 0.093
QWWRYS | 1.17 ± 0.41
DVVNVSYGPVITFMSVFRVS | 7.556 ± 0.051
TSSWIMIRS | 1.52 ± 0.19
CNFEHFFYKVFRFLQWTVYE | -0.153 ± 1.1
DYSLSWVRYSFAYRGVSKDG | 0.061 ± 0.12
LFRRGKILACIYA | 0.016 ± 1.1
GYLQGLCRG | -0.047 ± 1.1
AVFVPNSNALVLTVLT | 0.603 ± 0.51
GRCTRERW | 0.123 ± 0.32
RRWYYFIEWRKYYQNRTVDQ | -0.321 ± 0.8
LYIASSSLHCGLDVAW | -0.298 ± 0.49
LECRLC | 0.308 ± 0.25
EFWANRYGNHPLLGIHHCSP | 0.135 ± 0.77
VFTGNLICYMDGGTGFSCFQ | 9.018 ± 0.029
TLCRAGLNGPWLNVLRFVPR | 0.615 ± 0.36
VVKFYWCIVQCCTWNGMKSH | 8.363 ± 0.067

Substance | amyloid nucleation score
DFVPNGCNCINSGWDFRQVD | -1.88 ± 0.64
DFIEMVLDGCSHGLATVCPT | inactive
YYFIG | 0.673 ± 0.24
TPFAHSGSWCNSERLVPRLV | 0.364 ± 0.33
LGIVDRTFQSMPYVGWMMV | 0.563 ± 0.36
MLELSATMSVHVQRLNASGH | 9.009 ± 0.068
CFMDFQWHMRSHG | -0.265 ± 0.3
TCIGHFSNSQYN | inactive
GKCMV | 4.02 ± 0.095
VIIGIFCNSKSS | 4.33 ± 0.1
GPCMMEGLIYREMSAGYTTV | 0.416 ± 0.49
EKNTMDF | 1.64 ± 0.19
ESSVITGLWHV | -0.081 ± 0.8
INVAQALLSAPA | 3.81 ± 0.062
RLFNTYYSRSFASYGYWLHC | 0.47 ± 0.16
ILKSRSLVRFHFFSIGASCA | 0.427 ± 0.41
FECKVVILKCRLGYIFGANN | 1.26 ± 0.16
TVFWGTMVGPQRGVVGLESF | 0.593 ± 0.74
RAPVSWRLK | 0.267 ± 0.42
NIFYRLNGFFQCPRSGLKGC | inactive
DNKRWLRIWMKFLKGDMHGL | -0.283 ± 1.1
CCFVVISYDRNSQLH | 9.791 ± 0.043
VRLFLPHIYKMSLRDGGFEP | -0.349 ± 0.63
LELKFFHHPSPCFYNITQSA | 3.76 ± 0.092
VSIPLIISTCASLSVCSMTW | 8.067 ± 0.034

Substance | amyloid nucleation score
LLRRGVDIWVEHFRE | -0.613 ± 0.64
DNSHWI | 0.903 ± 0.47
KVPDKGEKLCSLLAFGYQG | 0.736 ± 0.8
TLDTSYYFLTRVFNHLNISE | -0.776 ± 0.55
SWVTSYERLRLPLNCMSNDQ | -0.452 ± 0.42
QDVGNKLKIWANITCARLWY | -0.067 ± 0.65
LYISQSCGRHD | -0.554 ± 0.22
NRKYTILVLDLLEGSLCARE | 0.599 ± 0.42
LDVVWSRVVRCRCVSWGNSL | 0.054 ± 0.65
GKPTFFMG | 0.6 ± 0.74
VFERDMLNWVSLSLDHCWCS | 1.31 ± 0.36
LAFMRLPAVVLSSTLSFMKS | 0.789 ± 0.66
IVLQRVGCFKDAGGNRVWEM | 0.264 ± 0.45
EQIGQ | 2.92 ± 0.089
QLPFWGWNCMAKLTVTLHSR | 1.22 ± 0.29
YFWSFYEVISFDCYHLIIFS | 0.004 ± 0.18
TTALGRFMFDLCNDDWYSLV | inactive
KDPLIRDVLDNANQRLVNSV | inactive
WGNGLSFTAACLLVLLKRNS | 2.2 ± 0.16
ERSNSRVVDL | -0.539 ± 0.44
CVMMLSSFLQRCRRVVLDSR | 0.325 ± 0.56
YRRLCWPWFRKLFEVYRDN | -0.554 ± 0.63
SAVNHTYVGD | 0.122 ± 1.1
SVGRTESAQYRKTV | 0.568 ± 0.44
FTEFPNFNDMSDRVV | -0.92 ± 0.64

Substance | amyloid nucleation score
PTQVSDLDNLTDCPRGVLPC | -0.735 ± 0.48
TPIRVFGNYNSFHFCTMSS | 8.302 ± 0.053
VSAEWLYTGVWPMRLRSSGV | 3.95 ± 0.055
KIVVSFWLLPCFGKLFFPSV | -0.618 ± 0.76
SPSSQSKVISCLRVS | 0.611 ± 0.81
CWMIQLVVLEWCAHGPRVAN | -0.304 ± 0.41
SYYISHYMSVWISLTDSGCY | -0.14 ± 0.56
GRESKVWIPFTGALF | -1.04 ± 1.1
DITLFYSDTSCRFSVPCSVD | 0.598 ± 0.46
VLDVVLYPGKF | 0.176 ± 0.26
DCWNCIISGSSALCAHVQSV | inactive
SKFHIVIWSSAFFGCNCRLA | 6.78 ± 0.079
MMNTMLHGIVVMNFSWVASW | 4.26 ± 0.053
MTCCF | -0.877 ± 1.1
VSSRYCTCRLCHPWYSFWFS | -0.625 ± 0.54
QDRVFYIAYVNNVS | 5.606 ± 0.04
LFWHLHSNFIADVLLNVRLC | 1.13 ± 0.53
SWRENFGWGICCSTVWPRCR | 1.86 ± 0.21
RALLRFMLWFCEIPD | 0.94 ± 0.74
KILALATRLKIFSSLVYIRS | 0.338 ± 0.51
MNFCGNRCPFSLYIPWTACV | -0.664 ± 1.1
NLRRCSHFHLACP | inactive
IWSRLVVLRGRAGSDSSKNS | -0.044 ± 0.5
